Each block holds one substance with its values, some of them ahead of it.
Legend:
[1] = molecular target: human TREM-1 on cells (BWZ/hTREM-1 reporter cells, PBMCs, macrophages, neutrophils, monocytes, synovial tissue cells) (human) (UniProt Q9NP99); assay: cell-based or functional assay
[2] = molecular target: human TREM-1 (hTREM-1 protein, SPR analyte of Examples 9 and 11) (human) (UniProt Q9NP99); assay: SPR, mAb captured, hTREM-1 analyte (Example 11)
[3] = molecular target: T1, cynomolgus monkey TREM-1 on cells (reporter cells, PBMCs, macrophages) (cynomolgus monkey); assay: cell-based or functional assay
T1 sequence: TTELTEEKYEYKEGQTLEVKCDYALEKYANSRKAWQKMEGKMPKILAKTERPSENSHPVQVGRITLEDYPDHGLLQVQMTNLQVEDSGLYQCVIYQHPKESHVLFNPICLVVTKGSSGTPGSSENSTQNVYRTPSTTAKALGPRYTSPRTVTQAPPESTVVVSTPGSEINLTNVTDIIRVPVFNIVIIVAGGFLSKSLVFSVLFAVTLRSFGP

[4] = molecular target: cynomolgus TREM-1 (cTREM-1 protein, SPR analyte of Examples 9 and 11) (cynomolgus monkey); assay: SPR, mAb captured, cTREM-1 analyte (Example 11)

human TREM-1 on cells (BWZ/hTREM-1 reporter cells, PBMCs, macrophages, neutrophils, monocytes, synovial tissue cells) (human), sequence (Q9NP99 21-234 limits assumed): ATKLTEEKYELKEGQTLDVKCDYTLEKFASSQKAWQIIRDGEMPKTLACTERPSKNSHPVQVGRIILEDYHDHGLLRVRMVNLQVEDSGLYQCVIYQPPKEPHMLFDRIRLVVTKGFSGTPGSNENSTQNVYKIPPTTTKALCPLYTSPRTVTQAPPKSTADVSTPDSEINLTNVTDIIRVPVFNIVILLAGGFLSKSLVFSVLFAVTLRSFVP
human PGLYRP1, sequence (O75594 22-196 limits assumed): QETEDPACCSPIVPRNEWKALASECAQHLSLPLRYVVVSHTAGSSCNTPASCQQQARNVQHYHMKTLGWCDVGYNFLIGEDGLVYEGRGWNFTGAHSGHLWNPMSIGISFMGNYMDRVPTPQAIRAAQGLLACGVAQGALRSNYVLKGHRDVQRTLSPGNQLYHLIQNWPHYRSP
human TREM-1 (hTREM-1 protein, SPR analyte of Examples 9 and 11) (human), sequence (Q9NP99 21-200 limits assumed): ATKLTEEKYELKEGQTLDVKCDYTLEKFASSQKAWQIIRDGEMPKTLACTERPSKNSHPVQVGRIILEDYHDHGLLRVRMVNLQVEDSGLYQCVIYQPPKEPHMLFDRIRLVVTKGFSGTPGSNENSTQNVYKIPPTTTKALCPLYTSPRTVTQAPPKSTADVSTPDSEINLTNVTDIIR

Substance: MAB1278 (R&D Systems, cat. no. MAB1278) (antibody)
BWZ/hTREM-1 reporter signal, RA synovial fluid, mAb 0.1 ug/ml, assay 1 [1]: 829000
BWZ/hTREM-1 reporter signal, RA synovial fluid, mAb 0.1 ug/ml, assay 2 [1]: 691000
BWZ/hTREM-1 reporter signal, RA synovial fluid, mAb 1 ug/ml, assay 1 [1]: 1.19e+06
BWZ/hTREM-1 reporter signal, RA synovial fluid, mAb 1 ug/ml, assay 2 [1]: 1.02e+06
BWZ/hTREM-1 reporter signal, RA synovial fluid, mAb 10 ug/ml, assay 1 [1]: 1.08e+06
BWZ/hTREM-1 reporter signal, RA synovial fluid, mAb 10 ug/ml, assay 2 [1]: 1.05e+06
IL-6, M2 macrophages on platebound mAb 2 µg/ml, Avg [1]: 412 pg/mL
IL-6, M2 macrophages on platebound mAb 6 µg/ml, Avg [1]: 877 pg/mL
IL-6, M2 macrophages on platebound mAb 20 µg/ml, Avg [1]: 1350 pg/mL
Luminescence × 10E6, BWZ/hTREM-1 reporter cells + activated neutrophils [1]: 1e+07 luminescence
TNFa, M2 macrophages on platebound mAb 2 µg/ml, Avg [1]: 2000 pg/mL
TNFa, M2 macrophages on platebound mAb 6 µg/ml, Avg [1]: 6450 pg/mL
TNFa, M2 macrophages on platebound mAb 20 µg/ml, Avg [1]: 7750 pg/mL
induction of NFAT-driven LacZ production, 1-10 µg/ml plate bound antibody [1]: 40 fold
induction of reporter luminescence, platebound antibody (FIG. 2) [1]: 32 fold
normalised reporter signal, antibody at 1 µg/ml (FIG. 3) [1]: > 1

Substance: SC98Z12 (Santa Cruz Biotechnology, sc-80394, clone 98Z12) (antibody)
% remaining activity at 0.003 µg/ml, BWZ/hTREM-1 reporter assay [1]: 120%
% remaining activity at 0.03 µg/ml, BWZ/hTREM-1 reporter assay [1]: 134%
% remaining activity at 0.3 µg/ml, BWZ/hTREM-1 reporter assay [1]: 131%
Kd [2]: 30 nM

Substance: TREM-26 (Biolegend, cat. nos. 314902 and 314907) (antibody)
% remaining cyno TREM-1 activity at 0.74 ug/ml, reporter assay [3]: 104%
% remaining cyno TREM-1 activity at 20 ug/ml, reporter assay [3]: 87.7%
% remaining activity at 0.003 µg/ml, BWZ/hTREM-1 reporter assay [1]: 100%
% remaining activity at 0.03 µg/ml, BWZ/hTREM-1 reporter assay [1]: 124%
% remaining activity at 0.3 µg/ml, BWZ/hTREM-1 reporter assay [1]: 108%
Luminescence × 10E6, BWZ/hTREM-1 reporter cells + activated neutrophils [1]: 9.9e+06 luminescence
normalised reporter signal, antibody at 1 µg/ml (FIG. 3) [1]: > 1
Kd [4]: 4 nM
Kd [2]: 0.9 nM

Substance: TREM-37 (Biolegend, cat. no. 316102) (antibody)
% remaining activity at 0.003 µg/ml, BWZ/hTREM-1 reporter assay [1]: 98%
% remaining activity at 0.03 µg/ml, BWZ/hTREM-1 reporter assay [1]: 103%
% remaining activity at 0.3 µg/ml, BWZ/hTREM-1 reporter assay [1]: 90%
Luminescence × 10E6, BWZ/hTREM-1 reporter cells + activated neutrophils [1]: 6.1e+06 luminescence
normalised reporter signal, antibody at 1 µg/ml (FIG. 3) [1]: > 1
Kd [2]: 0.8 nM

Substance: type II PGLYRP1 on transiently transfected HEK cells (ligand)
TNF-a release, RA synovial tissue cells, IgG4 + Type II cells, 1 × 10^4 HEK cells [1]: 95 pg/mL
TNF-a release, RA synovial tissue cells, IgG4 + Type II cells, 1 × 10^5 HEK cells [1]: 121 pg/mL
TNF-a release, RA synovial tissue cells, IgG4 + Type II cells, 3 × 10^3 HEK cells [1]: 54.6 pg/mL
TNF-a release, RA synovial tissue cells, IgG4 + Type II cells, 3 × 10^3 HEK cells (second column so headed) [1]: 57.9 pg/mL
TNF-a release, RA synovial tissue cells, IgG4 + Type II cells, 3 × 10^4 HEK cells [1]: 114 pg/mL

Other lines, results leading:

% remaining activity at 0.003 µg/ml, BWZ/hTREM-1 reporter assay [1]: 104%
% remaining activity at 0.03 µg/ml, BWZ/hTREM-1 reporter assay [1]: 101%
% remaining activity at 0.3 µg/ml, BWZ/hTREM-1 reporter assay [1]: 97%
Substance: Sigma #SAB1405121 (clone 3F5) (antibody)

% remaining activity at 0.003 µg/ml, BWZ/hTREM-1 reporter assay [1]: 98%
% remaining activity at 0.03 µg/ml, BWZ/hTREM-1 reporter assay [1]: 104%
% remaining activity at 0.3 µg/ml, BWZ/hTREM-1 reporter assay [1]: 86%
Kd [2]: 20 nM
Substance: Sigma #WH0054210M4 (clone 2E2) (antibody)

TNF-α, cyno M2 macrophages, PGN + PGRP-S, Donor 1 Avg [3]: 295 pg/mL
TNF-α, cyno M2 macrophages, PGN + PGRP-S, Donor 2 Avg [3]: 307 pg/mL
GM-CSF, RA synovial tissue cells, PGN + PGLYRP1 [1]: 616 pg/mL
IL-1beta, RA synovial tissue cells, PGN + PGLYRP1 [1]: 3770 pg/mL
IL-6, RA synovial tissue cells, PGN + PGLYRP1 [1]: 4190 pg/mL
IL-8, RA synovial tissue cells, PGN + PGLYRP1 [1]: 5510 pg/mL
MCP-1, RA synovial tissue cells, PGN + PGLYRP1 [1]: 471 pg/mL
MIP-1beta, RA synovial tissue cells, PGN + PGLYRP1 [1]: 4400 pg/mL
TNFa, normoxic M2 macrophages, PGN-BS + PGLYRP1, Donor 1 Avg [1]: 728 pg/mL
TNFa, normoxic M2 macrophages, PGN-BS + PGLYRP1, Donor 2 Avg [1]: 771 pg/mL
TNFalpha, RA synovial tissue cells, PGN + PGLYRP1 [1]: 1440 pg/mL
Substance: human PGLYRP1 (from UniProt O75594 22-196) (ligand)

From patent publication US20210253697A1
